The source of these data is patent US20240287172A1 (SCIRHOM, published 2024).

The target of the test is T1, hiR2-FL-M534-T7 (deletion of M534) (human, UniProt Q6PJF5 1-856).
T1 construct: single amino acid deletion
T1 sequence: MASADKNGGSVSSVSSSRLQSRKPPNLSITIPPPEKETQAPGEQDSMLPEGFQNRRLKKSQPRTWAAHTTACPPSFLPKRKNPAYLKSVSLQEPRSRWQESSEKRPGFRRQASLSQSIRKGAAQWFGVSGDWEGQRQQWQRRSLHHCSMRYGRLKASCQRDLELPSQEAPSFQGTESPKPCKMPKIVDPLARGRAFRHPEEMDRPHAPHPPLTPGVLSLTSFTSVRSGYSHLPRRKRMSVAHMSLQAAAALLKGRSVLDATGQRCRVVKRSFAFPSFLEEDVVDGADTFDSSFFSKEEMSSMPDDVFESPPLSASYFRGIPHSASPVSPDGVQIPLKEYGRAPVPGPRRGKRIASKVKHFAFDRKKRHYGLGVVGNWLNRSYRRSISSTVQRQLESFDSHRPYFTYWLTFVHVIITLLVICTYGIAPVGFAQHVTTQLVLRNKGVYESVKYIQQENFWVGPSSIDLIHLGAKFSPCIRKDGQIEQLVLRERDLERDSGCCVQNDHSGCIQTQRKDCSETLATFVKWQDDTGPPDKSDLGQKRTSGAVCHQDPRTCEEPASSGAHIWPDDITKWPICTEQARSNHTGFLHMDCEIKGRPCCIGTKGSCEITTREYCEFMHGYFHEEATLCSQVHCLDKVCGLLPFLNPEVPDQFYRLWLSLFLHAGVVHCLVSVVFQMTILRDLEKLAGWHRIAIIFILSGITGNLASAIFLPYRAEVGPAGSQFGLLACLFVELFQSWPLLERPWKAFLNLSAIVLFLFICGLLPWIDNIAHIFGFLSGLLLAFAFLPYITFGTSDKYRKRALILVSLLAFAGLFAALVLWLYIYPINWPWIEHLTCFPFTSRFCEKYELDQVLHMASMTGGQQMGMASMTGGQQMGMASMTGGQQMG
The test is described as follows: FACS, MEF-DKO cells, 3 µg/ml.

Where a chain is given by its changes, count along the chain named.

B1: antibody 16 (antibody, V domains shown)
VH: QVTLKESGPGILQPSQTLSLTCSFSGFSLSTFALGVGWIRQPSGRGLEWLAHIWWDDDKYYNPALKSRLTISKDTSKNHVFLKIANVDTADTATYYCARITTYYYGMDYWGQGTSVTVSS
VL: DIVLSQSPATLSVTPGDSVSLFCRASQSIGNHLHWYQQESHASPRLLIKYASQSISGIPSRFSGSGSGTDFTLSINSVETEDFGMYFCQQSYNWPLTFGAGTKLELK
notes: mouse IgG, kappa light chain; also called clone #16; purified antibody 16
Turning to B1, the “loss of binding vs wild type” value was no less than 95%.

B2: antibody 3 (antibody, V domains shown)
VH: QVTLKESGPGILQPSQTLSLTCSFSGFSLTTFAMGIGWVRQPSGKGLEWLAHIWWDGEKYNNPVLKSRLTISKDTSKNQVFLRIANVDTPDTATYYCARISSIYYIIDNWGQGTSVTVSS
VL: B1 VL with S5T, D17H, F22S, G30S, H32N, Q38K, E39K, A42E, A51V
notes: mouse IgG, kappa light chain; also called clone #3; purified antibody 3
For the molecule B2, the “loss of binding vs wild type” value is no less than 95%.

B3: antibody 34 (antibody, V domains shown)
VH: QVTLKESGPGILQPSQTLSLTCSFSGFSLSTFSLGVGWIRQSSGKGLEWLAHIWWDDEKYYNPALKSRLTISKDTSKNQVFLKIANVDAADTATYYCARAYYSKSYYALDYWGQGTSVTVSS
VL: DIQMTQSPSSLSASLGERVSLTCRASQEISGYLSWLQQKPDGTIKRLIYAASTLDSGVPKRFSGSRSGSDYSLAISSLESEDFADYYCLQYANFPFTFGSGTKLEIK
notes: mouse IgG, kappa light chain; also called clone #34; purified antibody 34
B3: the “loss of binding vs wild type” value was no less than 95%.

B4: antibody 5 (antibody, V domains shown)
VH: QVTLKESGPGILQPSQTLSLTCSFSGFSLSTFGMGVGWIRQPSGKGLEWLAHIWWDDEKYYNSALKSRLTISKATSKNQAFLKIANVDTADTATYYCARISNYGSNYWYFNVWGTGTTVTVSS
VL: QVVLTQSPALMSASPGEKVTMTCSAGSSVSCMYWYQQKPGSSPRVLIYDTSNLASGVPARFTGSGSGTSYSLTISRMEAEDAASYYCQQWNSYPLTFGAGTKLELK
notes: mouse IgG, kappa light chain; also called clone #5; purified antibody 5
Turning to B4, the “loss of binding vs wild type” value is no less than 95%.

B5: antibody 44 (antibody, V domains shown)
VH: B4 VH with G44E, E58D, S63P, A74D, A80I, A85T, D91E, A98S, S101G, N111D
VL: QIVLTQSPAVMSASPGEKVTMTCTASSSVYYMYWYQQTPGSSPRLLIYDTSNLASGVPVRFSGSGSGTSYSLTISRMEAEDAATYYCQQWNTYPLTFGAGTKLELK
notes: mouse IgG, kappa light chain; also called clone #44; purified antibody 44
As to B5, the “loss of binding vs wild type” value is no less than 95%.

B6: antibody 43 (antibody, V domains shown)
VH: B4 VH with T3A, P42S, H52N, E58D, S63P, A74D, T75A, S101G, N111D
VL: QIVLTQSPAIMSASPGERVTMTCSANSRISYMYWYQQKPGSSPRLLIYDTSNLASGVPVRFSGSGSGTSYSLTISRMEAEDAATYNCQQWSSYPLTFGAGTKLELK
notes: mouse IgG, kappa light chain; also called clone #43; purified antibody 43
As to B6, the “loss of binding vs wild type” value was no less than 95%.

B7: antibody 42 (antibody, V domains shown)
VH: B4 VH with F24L, M34R, S63P, A74D, A80V, K83R, S101Q, N111D
VL: B6 VL with Q1L, R18K, S24G, N26T, Y33F, L45V, M77V, A82V, N86Y, S91N
notes: mouse IgG, kappa light chain; also called clone #42; purified antibody 42
B7: the “loss of binding vs wild type” value was no less than 95%.

B8: antibody 22 (antibody, V domains shown)
VH: B4 VH with A80V
VL: B4 VL with C31Y, S84T
notes: mouse IgG, kappa light chain; also called clone #22; purified antibody 22
Consider B8, for which the “loss of binding vs wild type” value was no less than 95%.
